Data from the supplement of paper PMC12042874.
± gives the uncertainty stated by the source.

assay: amyloid nucleation score (Sup35N fusion, yeast selection) (log enrichment); library NNK3; higher = more nucleation; inactive = no reads after selection
Procedure, shortened: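 Peptides of 20 random codons, each fused to Sup35N, were expressed in psi-negative yeast. Cells were induced with 100 μM copper sulfate for 24 hours and grown 7 days at 30°C on medium lacking adenine and uracil, and plasmid inserts before and after selection were Illumina-sequenced. Nucleation scores are DiMSum log enrichments of output over input reads, centred on the mode score of non-aggregating sequences, and sequences under 100 input reads were excluded.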

| Substance | amyloid nucleation score |
| --- | --- |
| CGYKEVGVPASRRMNS | inactive |
| CHHLRWDNCVRREELDFTCV | inactive |
| CHKVLWSSVKTVDFMLSNMG | inactive |
| CHRRLML | inactive |
| CHVLWGCCIRSQVCCSAYNV | 2.06 ± 0.073 |
| CIFYDSLVDWDHHYSHKGWH | inactive |
| CIGGWDIKGKQ | inactive |
| CIRVKHFCISHEDKR | inactive |
| CIRVTMSNMMVESWVYGDKP | 0.586 ± 0.15 |
| CIVYSFSRGFTSNGGEGYRW | 0.67 ± 0.22 |
| CIYWLEF | 1.57 ± 0.084 |
| CKDSDSTIPRMLLLRLKTEL | inactive |
| CKIGYPTYNVGVIVSLVVRM | 1.61 ± 0.066 |
| CKVHECHVPAG | inactive |
| CKVYGKSLVMAYN | inactive |
| CLCSMHLRWRSSNWRGYEHF | 0.474 ± 0.31 |
| CLFRYSEYSVGKLMGYCDCG | inactive |
| CLFSHYLV | inactive |
| CLGADCVAHFSYFHA | inactive |
| CLKVSTKCFW | 0.097 ± 0.52 |
| CLLCGSRHFRHRLGFVSYRI | inactive |
| CLLYSYCCPRKIVN | inactive |
| CLPVARGQMR | inactive |

| Substance | amyloid nucleation score |
| --- | --- |
| CLQSARYKIFCFFYFDVLSH | inactive |
| CLSLDQWWLHRYDHLVLGET | inactive |
| CLSLKNERHQVFMSRIGNRA | inactive |
| CLVTGWISSILNWFLYWNWE | inactive |
| CLVWG | inactive |
| CLWFISRQFDLYHRVMGNRS | inactive |
| CLYVSLS | inactive |
| CMDKFWCVVYA | -0.416 ± 1.5 |
| CMFNGGDWNHNVRELGRQSS | inactive |
| CMFRLMIPSIKTNAISIALC | 0.068 ± 0.9 |
| CMHGRGMWMNIACAFSCRQF | 0.063 ± 0.69 |
| CMIFGVSLAYVCGCSLYGVG | inactive |
| CMLCKPWSSQVNSY | inactive |
| CMLDKSAIIMTRMECIVLSY | inactive |
| CMMWNRGFT | inactive |
| CMRGWNSRVE | inactive |
| CMVLRYVTVVSGMSQAKRMY | inactive |
| CNCVAKDKVMLHVSRRRADF | 0.201 ± 0.72 |
| CNDGSHCLGYY | inactive |
| CNDLVYFMMFVLYLVTRWET | inactive |
| CNGFFCGMCCYTKRKMKYAI | inactive |
| CNISSFNT | inactive |
| CNKGSNTYVVDYAVGNGH | inactive |

| Substance | amyloid nucleation score |
| --- | --- |
| CNLALFTRGWGEYMIVSCCK | inactive |
| CNLRMCNGA | inactive |
| CNMRVERLMSLFSL | inactive |
| CNNLFFSWLKFMLIGIMGH | inactive |
| CNPLFTYNKPSVDKSV | inactive |
| CNSYTYVEGSNYNGSSQGLD | inactive |
| CNVASSNFRCHYSQMRRFCE | inactive |
| CNVFWVPTVRLIFKMYKVSR | 0.417 ± 0.36 |
| CPAYMYCTGMSVNTCPGKGG | inactive |
| CPESLWNKSYVYAGALTFLR | inactive |
| CPFPRLSICVACNEYDNQLS | inactive |
| CPTCWRYVNIRYSI | inactive |
| CQHSRRLKGAAYKSCQMYRR | inactive |
| CQWANY | -0.508 ± 1 |
| CQYPCVMLCQC | 0.504 ± 0.19 |
| CRGLLYISVNYNMILFQHTR | inactive |
| CRRNTVFMNRVYNNGLFEEC | inactive |
| CRSQMHWLYSQRQIMPVLRS | inactive |
| CRVSGMDICLWSMMCDSVGS | inactive |
| CRYYNSC | inactive |
| CSCWFFLVHNFNNIYRILWK | inactive |
| CSFSISSSGVLWRGKERPIG | 1.05 ± 0.18 |
| CSGFRVNSSTVIGYLSILLK | inactive |

| Substance | amyloid nucleation score |
| --- | --- |
| CSGGGGKRGLLSTLTEPMRR | inactive |
| CSGISSNGGLLTLGCCFCRG | 2.96 ± 0.076 |
| CSILACSA | inactive |
| CSIYNCMSHHKRVTG | 1.2 ± 0.15 |
| CSLRPNSERTSVIYNALHVN | inactive |
| CSMPWLRSSTGGGVLLIEKS | inactive |
| CSPKPNKKAAMYKSAYNPGM | 0.629 ± 0.17 |
| CSRIRLMGFDWLAPIPHA | inactive |
| CSTYSRLRYIAYCWVVRP | inactive |
| CSVFPQVRLCPRSSANQELD | inactive |
| CSVLDKEVFGGTSQDSDSYL | inactive |
| CSWRNRYCMLRRELFGAWRV | inactive |
| CSYRCYSLGCNMQIV | inactive |
| CTGYDCVGMGADFCARMWHC | inactive |
| CTKKM | inactive |
| CTLIAKHNQA | inactive |
| CVADHLSCISTRGNCCYMSG | 0.473 ± 0.26 |
| CVAYSRTEVRFYRYEHLWV | 1.18 ± 0.12 |
| CVDQT | inactive |
| CVFRYLVHHERMSYILNAGC | inactive |
| CVFYCSKLWIRYNNVMMISS | 0.831 ± 0.1 |
| CVGHVRSYYGMQIPKGLKLS | inactive |
| CVGVF | inactive |

| Substance | amyloid nucleation score |
| --- | --- |
| CVLSVEYGHNQEDAITMRCE | inactive |
| CVPGYGYRLNYSL | inactive |
| CVPNWVVCRLSIYKF | inactive |
| CVSGDCVMIMFYLFSPVAVV | inactive |
| CVSPDCMLMGAHDYGVERWL | inactive |
| CVTSVVFRFRQHGYTRKGMA | 1.27 ± 0.15 |
| CVVNGDLVASLKSLFLGWCL | inactive |
| CVYGPRFNF | 1.94 ± 0.067 |
| CWAYVMRT | inactive |
| CWEFYVVLYRLLGICKIRVL | inactive |
| CWFRLYQRNARVVDNFVNHG | inactive |
| CWQFK | 0.22 ± 0.9 |
| CWRVCGARYLWA | inactive |
| CWTTINVSGCPNVGGGTVLQ | 0.9 ± 0.17 |
| CYCLLGVRLHVWIS | inactive |
| CYGFSK | inactive |
| CYLCVAAGWSMATPLRGGLA | inactive |
| CYPTSFGCFFVFFWYYVYCG | inactive |
| CYRCVCFLLCGFVQSDCYDD | inactive |
| CYVLVMKIPSHFKGTFMWHI | inactive |
| CYVNYWESDMLRTAVPNCTF | inactive |
| DAFRSSYWIICMTEAHLYKF | inactive |
| DAGYDVVLGSMAMVSVGTCL | inactive |

| Substance | amyloid nucleation score |
| --- | --- |
| DATRSCLWMYAIVYNACIGH | inactive |
| DAYNVYMMSSRPAHYQGHYL | inactive |
| DCAYMCNVYFLVLGSAKLFI | 1.27 ± 0.17 |
| DCFMGPLVSNCGFYECRLSV | inactive |
| DCHLPKIKYFAITYFCFFRR | inactive |
| DCRAIVLRL | inactive |
| DCVNWTWHTTDNLVVTYSYN | inactive |
| DDDRGGSTMTATHRRRMWHL | inactive |
| DDECELNMRYNGREYQGTDG | inactive |
| DDHLGKVGSGFRIGICTLQN | inactive |
| DDLRYRNE | inactive |
| DDPQVGLNFAQSYALPEYFA | inactive |
| DDSNCKRKDRVVSVRMMDLT | inactive |
| DEANRYPRYLYILERLAYRK | inactive |
| DEFVCLEVDNLCMVCSEKM | -0.067 ± 0.73 |
| DEIPCDVRGLMPTRVSTLNL | inactive |
| DENVALFFLF | inactive |
| DFAVGLLVHWHNPHYNTELQ | 1.25 ± 0.13 |
| DFGFYWSSVGHAGLETKLYP | inactive |
| DFHIKERG | inactive |
| DFISERHYHRPAGPA | inactive |
| DFVDARFWQIFGFSNAEQGL | inactive |
| DFVRVEMNYLDENDGGCYL | inactive |

| Substance | amyloid nucleation score |
| --- | --- |
| DGKFRSNWSYGVLWMLVFLY | inactive |
| DGMTMFLSYN | -0.208 ± 1.1 |
| DGSIGRGVDRRLTKSSQPAL | inactive |
| DGTMANRIVVF | inactive |
| DGVLSVGSLCNDRFVLEMYG | -0.432 ± 1 |
| DHKFGNMLAFESRLVLYQIK | inactive |
| DHQLSGGDGVGSMYSTEGKL | inactive |
| DHVAG | inactive |
| DIIVKQLPKRYGPTMSIRNM | -0.057 ± 0.58 |
| DILFTSIS | 0.257 ± 0.41 |
| DILGVCLSMNYWVI | inactive |
| DILIREFDYLTSTHLDDKIR | inactive |
| DIVGHIKSLMFLVLEDTSSP | inactive |
| DKDMNEQVS | inactive |
| DKFLFLCMG | inactive |
| DKGQRVNSSGRVCNMNMGYW | inactive |
| DKRNSLGCGLNYGFKADDGW | inactive |
| DLAINGSAAQTVVLRAERSY | inactive |
| DLDCGTSDMLCCRLVCC | inactive |
| DLFKTVPYRWGFRYHIGIYM | inactive |
| DLGLERLAFS | inactive |
